*1 amine or outer side, *2 acyl side, *3 side chain or, on linkers, in order; H or OH if unused. Where a SMILES comes first, the peptide text is derived from it. Bridges are numbered along the chain shown (N, C = ends). Primed or numbered codes have the meaning given here. [ ]: non-standard residue; d: D form. The star is where a group is joined. Ttds = 1,13-diamino-4,7,10-trioxatridecan-succinamic acid, NCCCOCCOCCOCCCNC(=O)CCC(=O)*; X3 = O=C(O)CN1CCN(CC(=O)O)CCN(CC(=O)NCCCOCCOCCOCCCN*)CCN(CC(=O)O)CC1; Pro(trans-4-NH2) = O=C([C@@H]1C[C@@H](N[*:3])CN1[*:1])[*:2]; DOTA = O=C(O)CN1CCN(CC(=O)O)CCN(CC(=O)*)CCN(CC(=O)O)CC1; MeO2kDaPEGAc = polydisperse 2 kDa PEG (methoxy, acetyl); Trp(5-Br) = N[C@@H](Cc1c[nH]c2ccc(Br)cc12)C(=O)O; Trp(5-Cl) = N[C@@H](Cc1c[nH]c2ccc(Cl)cc12)C(=O)O; Phe(3,5-Cl2) = N[C@@H](Cc1cc(Cl)cc(Cl)c1)C(=O)O; Pyridine(2,6-diCH2) = c1cc(C[*:1])nc(C[*:2])c1; Trp(6-F) = N[C@@H](Cc1c[nH]c2cc(F)ccc12)C(=O)O; 2Lut″ = 2,6-lutidylidene linking two thiols; 1Nal = N[C@@H](Cc1cccc2ccccc12)C(=O)O; mXylylene = c1cc(C[*:1])cc(C[*:2])c1; Hyp = O=C(O)[C@@H]1C[C@@H](O)CN1; Cysteamide = C(CS[*:3])N[*:1]; Suc = O=C(CCC(=O)[*:2])[*:1]; hLeu = CC(C)CC[C@H](N)C(=O)O; Api = NC1(C(=O)O)CCNCC1; Thp = NC1(C(=O)O)CCOCC1; Aib = CC(C)(N)C(=O)O; Sar = CNCC(=O)O

To fix the notation:
T1: GIPR (CHO-K1-hGIPR cells) (Homo sapiens, UniProt P48546)
T1 construct: host or cells: CHO-K1
T1 sequence (P48546 22-466): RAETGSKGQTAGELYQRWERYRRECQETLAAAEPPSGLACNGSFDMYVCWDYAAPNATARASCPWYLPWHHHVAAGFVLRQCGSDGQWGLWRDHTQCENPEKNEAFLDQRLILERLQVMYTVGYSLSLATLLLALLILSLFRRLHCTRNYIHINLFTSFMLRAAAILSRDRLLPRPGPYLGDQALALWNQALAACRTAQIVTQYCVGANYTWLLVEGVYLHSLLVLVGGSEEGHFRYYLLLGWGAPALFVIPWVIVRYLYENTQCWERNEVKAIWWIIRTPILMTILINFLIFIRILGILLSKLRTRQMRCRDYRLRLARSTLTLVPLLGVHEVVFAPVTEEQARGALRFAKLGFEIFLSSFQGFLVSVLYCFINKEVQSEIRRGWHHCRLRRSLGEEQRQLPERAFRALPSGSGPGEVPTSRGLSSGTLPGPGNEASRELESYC

B1: DOTA-Ttds-Asp-Trp-5Clw-Nmg-Glu-leu-[Cys(3MeBn)-Aib-Leu-Ile-AET] (peptide)
peptide: {DOTA-Ttds}-DW[Trp(5-Cl)][Sar]E[dL]C[Aib]LI[Cysteamide]
modifications: linker (positions not given here) via mXylylene; not fully specified (bridges); printed as DOTA-Ttds-Asp-Trp-5Clw-Nmg-Glu-leu-[Cys(3MeBn)-Aib-Leu-Ile-AET]

The target of the first experiment is T1, GIPR (CHO-K1-hGIPR cells). Kind of experiment: FACS binding assay. Conditions: competition with 20 nM GIP-057, 4° C. for 1 hour, read-out: pIC50 Category (converted). An outline of the steps:
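CHO-K1 cells stably expressing human GIPR were detached with Accutase, suspended at 500.000 cells per mL in PBS with 1% FCS, and washed ice-cold. Bound peptide was detected with 1 μg/mL APC-streptavidin for 30 min on ice.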
In general terms: A flow cytometer gives signals particle by particle.
Consider `CC[C@H](C)[C@@H]1NC(=O)[C@H](CC(C)C)NC(=O)C2(CCN(C(=O)CN3CCN(CC(=O)O)CCN(CC(=O)O)CCN(CC(=O)O)CC3)CC2)NC(=O)[C@@H](NC(=O)[C@H](CCC(C)C)NC(=O)[C@H](CCC(=O)O)NC(=O)[C@@H]2CCCN2C(=O)[C@H](Cc2cccc3ccccc23)NC(=O)[C@H](Cc2c[nH]c3ccccc23)NC(=O)[C@H](CC(=O)O)NC(C)=O)CSCc2cccc(c2)CSC[C@@H](C(N)=O)NC1=O` [GIP-400, Ac-Asp-Trp-1Ni-Pro-Glu-Hle-[Cys(3MeBn)-Apc(DOTA)-Leu-Ile-Cys]-NH2] (Ac-DW[1Nal]PE[hLeu]C[Api](DOTA)LIC-NH2; linker 7-11 via mXylylene), for which the IC50 is 100 to 794 nM.

Regarding `CC[C@H](C)[C@@H]1NC(=O)[C@H](CC(C)C)NC(=O)C2(CCOCC2)NC(=O)[C@@H](NC(=O)[C@@H](CC(C)C)NC(=O)[C@H](CCC(=O)O)NC(=O)[C@@H]2C[C@@H](O)CN2C(=O)[C@H](Cc2cc(Cl)cc(Cl)c2)NC(=O)[C@H](Cc2c[nH]c3ccccc23)NC(=O)[C@H](CC(=O)O)NC(=O)CCC(=O)NCCCOCCOCCOCCCNC(=O)CN2CCN(CC(=O)O)CCN(CC(=O)O)CCN(CC(=O)O)CC2)CSCc2cccc(n2)CSC[C@@H](C(N)=O)NC1=O` [GIP-401, DOTA-Ttds-Asp-Trp-Egn-Hyp-Glu-leu-[Cys(2Lut)-Thp-Leu-Ile-Cys]-NH2] ({X3-Suc}-DW[Phe(3,5-Cl2)][Hyp]E[dL]C[Thp]LIC-NH2; linker 7-11 via Pyridine(2,6-diCH2)), the IC50 is 10 to 79.4 nM. As for `CC[C@H](C)[C@@H]1NC(=O)[C@H](CC(C)C)NC(=O)C2(CCOCC2)NC(=O)[C@@H](NC(=O)[C@@H](CC(C)C)NC(=O)[C@H](CCC(=O)O)NC(=O)[C@@H]2C[C@@H](NC(=O)CN3CCN(CC(=O)O)CCN(CC(=O)O)CCN(CC(=O)O)CC3)CN2C(=O)[C@H](Cc2cc(Cl)cc(Cl)c2)NC(=O)[C@H](Cc2c[nH]c3ccccc23)NC(=O)[C@H](CC(=O)O)NC(C)=O)CSCc2cccc(n2)CSC[C@@H](C(N)=O)NC1=O` [GIP-402, Ac-Asp-Trp-Egn-Tap(DOTA)-Glu-leu-[Cys(2Lut)-Thp-Leu-Ile-Cys]-NH2] (Ac-DW[Phe(3,5-Cl2)][Pro(trans-4-NH2)](DOTA)E[dL]C[Thp]LIC-NH2; linker 7-11 via Pyridine(2,6-diCH2)), the IC50 is 10 to 79.4 nM.

Staying with this experiment, now noted: competition with 20 nM GIP-057, 4° C., 1 hour.
Turning to “HO-Succinyl-Trp-5Clw-Hyp-Glu-leu-[Cys(2Lut)-Apc(MeO2kDaPEGAc)-Leu-Ile-Cys]-APAc-Lys(DOTA)-NH2 [GIP-143]”, the “pIC50 Category” value was “B (pIC50 values between 7.1 and 8.0)”. On the same count and under the same terms, the entry for “HO-Succinyl-Trp-5Clw-Hyp-Glu-leu-[Cys(2Lut)-Thp-Leu-Ile-Cys]-APAc-lys(MeO2kDaPEGAc)-Lys(DOTA)-NH2 [GIP-144]” is “B (pIC50 values between 7.1 and 8.0)”; for “MeO2kDaPEGAc-Asp-Trp-5Clw-Hyp-Glu-leu-[Cys(2Lut)-Thp-Leu-Ile-Cys]-lys(DOTA)-NH2 [GIP-120]” it is “A (pIC50 values>8.0)”.

In a further experiment the target is human Gastric Inhibitory Peptide Receptor (human) (UniProt P48546). The experiment is described as follows: FACS competition with GIP-057 on CHO-K1-hGIPR cells; pIC50 category A: >8.0.
Settings: not given
In turn, “Ac-Cya-Trp-5Clw-Hyp-Glu-leu-[Cys(2Lut)-Thp-Leu-Ile-Cys]-NH2 (peptide)” displayed a pIC50 above 8 pic50. On to “DOTA-APAc-Asp-Trp-5Clw-Hyp-Glu-leu-[Cys(2Lut)-Apc(AGLU-Glutar)-Leu-Ile-Cys]-APAc-glu(AGLU)-NH2 (peptide)”, for which the pIC50 was above 8 pic50. The same measure, in the same setting: next, “DOTA-Asp-Trp-5Clw-Hyp-Glu-leu-[Cys(2Lut)-Thp-Leu-Ile-Cys]-NH2 (peptide)”: above 8 pic50; Ac-DW[Trp(5-Cl)][Hyp]E[dL]C[Api](DOTA)LIC-NH2 (linker 7-11 via Pyridine(2,6-diCH2)) [Ac-Asp-Trp-5Clw-Hyp-Glu-leu-[Cys(2Lut)-Apc(DOTA)-Leu-Ile-Cys]-NH2]: above 8 pic50.

The molecule B1 came in with a pIC50 above 8 pic50. The molecule {DOTA-Ttds}-D[Trp(6-F)][Trp(5-Br)]PE[dL]C[Aib]LI[Cysteamide] (linker 7-11 via mXylylene) [DOTA-Ttds-Asp-6Fw-5Brw-Pro-Glu-leu-[Cys(3MeBn)-Aib-Leu-Ile-AET]] had a pIC50 above 8 pic50.

Ac-DW[Trp(5-Cl)][Pro(trans-4-NH2)]E[dL]C[Api](DOTA)LIC-NH2 (linker 7-11 via 2Lut″) [Ac-Asp-Trp-5Clw-Tap-Glu-leu-[Cys(2Lut)-Apc(DOTA)-Leu-Ile-Cys]-NH2] had a pIC50 above 8 pic50. Same read-out and setting: next, MeO2kDaPEGAc-DW[Trp(5-Cl)][Hyp]E[dL]C[Thp]LIC-{dK(DOTA)-NH2} (linker 7-11 via Pyridine(2,6-diCH2)) [MeO2kDaPEGAc-Asp-Trp-5Clw-Hyp-Glu-leu-[Cys(2Lut)-Thp-Leu-Ile-Cys]-lys(DOTA)-NH2]: above 8 pic50.

The values are drawn from patent US20250296971A1, “GASTRIC INHIBITORY PEPTIDE RECEPTOR LIGANDS” (priority 2021, published 2025).
